Data taken from US20100087631A1 (Eli Lilly, published 2010).

T1: recombinant mouse myostatin (R&D systems, Cat. #788-G8/CF) (mouse, UniProt O08689 268-376)
T1 construct: Bought protein; also called GDF-8; myostatin (R&D Systems 788-G8)
T1 sequence: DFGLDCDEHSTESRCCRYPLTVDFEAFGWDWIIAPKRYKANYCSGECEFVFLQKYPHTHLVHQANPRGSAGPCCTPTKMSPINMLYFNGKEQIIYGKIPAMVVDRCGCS


Tests used:
[1] = biological target: recombinant human HGF (R&D Systems, catalog #294-HG/CF) (human) (UniProt P14210); assay: ELISA, human HGF coated on plate, isotype control at 1 ug/ml (column headed C12 HGF)
[2] = biological target: recombinant human HGF (R&D Systems, catalog #294-HG/CF) (human) (UniProt P14210); assay: ELISA, human HGF coated on plate, isotype control at 1 ug/ml (column headed 510C2 HGF)
human GDF-8 (human) [3] = biological target: human GDF-8 (human) (UniProt O14793); assay: ELISA, human GDF-8 coated on plate, isotype control at 1 ug/ml (column headed C12 GDF-8)
[4] = biological target: recombinant human GDF-11 (Peprotech, Inc., Cat. #120-11) (human) (UniProt O95390); assay: ELISA, human GDF-11 coated on plate, isotype control at 1 ug/ml (column headed C12 GDF-11)
human GDF-8 (human) [5] = biological target: human GDF-8 (human) (UniProt O14793); assay: ELISA, human GDF-8 coated on plate, isotype control at 1 ug/ml (column headed 510C2 GDF-8)
[6] = biological target: recombinant human GDF-11 (Peprotech, Inc., Cat. #120-11) (human) (UniProt O95390); assay: ELISA, human GDF-11 coated on plate, isotype control at 1 ug/ml (column headed 510C2 GDF-11)
[7] = biological target: T1, recombinant mouse myostatin (R&D …); assay: ELISA, GDF-8 coated on plate (GDF-8 down), Fab titrated, anti-kappa AP detection

recombinant human GDF-11 (Peprotech, Inc., Cat. #120-11) (human), sequence (O95390 299-407 limits assumed): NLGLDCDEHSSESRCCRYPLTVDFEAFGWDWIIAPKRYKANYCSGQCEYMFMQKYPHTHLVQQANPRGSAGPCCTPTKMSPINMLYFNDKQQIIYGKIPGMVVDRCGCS
recombinant human HGF (R&D Systems, catalog #294-HG/CF) (human), sequence (P14210 32-728 limits assumed): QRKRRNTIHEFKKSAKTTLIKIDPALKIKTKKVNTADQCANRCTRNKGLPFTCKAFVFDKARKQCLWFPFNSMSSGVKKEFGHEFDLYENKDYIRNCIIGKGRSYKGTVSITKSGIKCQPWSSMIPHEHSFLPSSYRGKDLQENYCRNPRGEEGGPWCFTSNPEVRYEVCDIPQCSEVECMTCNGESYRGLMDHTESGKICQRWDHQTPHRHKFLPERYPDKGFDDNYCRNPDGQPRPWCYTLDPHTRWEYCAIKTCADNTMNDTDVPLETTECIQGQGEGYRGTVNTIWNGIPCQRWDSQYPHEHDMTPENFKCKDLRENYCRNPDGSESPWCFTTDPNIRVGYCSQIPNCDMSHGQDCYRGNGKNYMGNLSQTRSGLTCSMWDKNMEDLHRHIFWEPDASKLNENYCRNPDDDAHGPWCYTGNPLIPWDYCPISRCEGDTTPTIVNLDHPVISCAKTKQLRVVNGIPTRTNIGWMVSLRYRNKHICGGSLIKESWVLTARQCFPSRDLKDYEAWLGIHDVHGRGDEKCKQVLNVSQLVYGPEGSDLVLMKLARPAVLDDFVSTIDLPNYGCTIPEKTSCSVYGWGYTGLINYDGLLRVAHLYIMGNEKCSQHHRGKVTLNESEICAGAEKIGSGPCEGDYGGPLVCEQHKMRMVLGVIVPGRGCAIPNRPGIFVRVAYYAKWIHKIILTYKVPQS

average absorbance at 490 nm [1] [OD 490 nm] | average absorbance at 490 nm [2] [OD 490 nm] | average absorbance at 490 nm (human GDF-8 (human) [3]) [OD 490 nm] | average absorbance at 490 nm [4] [OD 490 nm] | average absorbance at 490 nm (human GDF-8 (human) [5]) [OD 490 nm] | average absorbance at 490 nm [6] [OD 490 nm] | IC50 [7] [µg/mL] | Molecule
0.049 | 0.0804 | 0.0519 | 0.0487 | 0.0907 | 0.0919 |  | isotype control antibody
 |  |  |  |  |  | 0.25 | C12 Fab (Fab, V domains shown) VH: QLQLQESGPGLVKPSETLSLTCTVSGFSLRKVGSSVSWIRQPPGKGLEWIGHIYWDDDKRLNPSLRNRVTISVDTSKNQFSLKLSSVTAADTAVYYCARRAITTVIGGGTFDLWGQGTLVTVSS VL: DIQMTQSPSSLSASVGDRVTITCSASSSISYMHWYQQKPGKAPKLLIYDTSKLARGVPSRFSGSGSGTDFTLTISSLQPEDFATYYCQQWYLNPLTFGGGTKVEIKR
